From patent US20140322759
Changes are numbered by the printed parent chain.

Legend:
Test in all cases: EMSA
[1] = molecular target: T1, phi29 DNA polymerase K512E K512E (Bacillus phage phi29) (UniProt P03680); conditions: SD 27.6; unit not given (μM in assay); pH 7.9, 66 mM K-acetate, 30 C
T1 sequence: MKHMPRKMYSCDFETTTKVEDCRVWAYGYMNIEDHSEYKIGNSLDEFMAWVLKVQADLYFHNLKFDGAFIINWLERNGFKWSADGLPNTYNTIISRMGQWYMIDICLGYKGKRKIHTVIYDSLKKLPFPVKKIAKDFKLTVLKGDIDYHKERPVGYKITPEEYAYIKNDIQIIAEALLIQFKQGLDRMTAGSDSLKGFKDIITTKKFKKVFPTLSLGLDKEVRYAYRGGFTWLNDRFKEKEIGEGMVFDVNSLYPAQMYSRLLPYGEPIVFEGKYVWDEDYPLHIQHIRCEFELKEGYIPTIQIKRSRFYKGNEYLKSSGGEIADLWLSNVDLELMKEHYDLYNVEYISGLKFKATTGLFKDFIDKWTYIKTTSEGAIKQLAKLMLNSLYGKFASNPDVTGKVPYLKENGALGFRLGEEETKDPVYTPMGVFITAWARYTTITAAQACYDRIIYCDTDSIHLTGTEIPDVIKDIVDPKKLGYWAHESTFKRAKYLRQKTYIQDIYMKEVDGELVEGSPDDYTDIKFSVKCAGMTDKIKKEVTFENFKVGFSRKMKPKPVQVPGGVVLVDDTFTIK

[2] = molecular target: T2, phi29 DNA polymerase M8R M8R (Bacillus phage phi29) (UniProt P03680); conditions: SD 2.1; unit not given (μM in assay); pH 7.9, 66 mM K-acetate, 30 C
T2 sequence: T1 sequence with M8R, E512K

[3] = molecular target: T3, phi29 DNA polymerase M97T M97T (Bacillus phage phi29) (UniProt P03680); conditions: SD 2.5; unit not given (μM in assay); pH 7.9, 66 mM K-acetate, 30 C
T3 sequence: T1 sequence with M97T, E512K

[4] = molecular target: T4, phi29 DNA polymerase G197D G197D (Bacillus phage phi29) (UniProt P03680); conditions: SD 25.7; unit not given (μM in assay); pH 7.9, 66 mM K-acetate, 30 C
T4 sequence: T1 sequence with G197D, E512K

## GATCACAGTGAGTAC / TCTATTGTACTCACTGTGATC [15-mer/21-mer primer/template]
[1]
  Kd: 54 µM
[2]
  Kd: 43 µM
[3]
  Kd: 37 µM
[4]
  Kd: 51 µM
